The values that follow come from the Human Domainome abundance scans (Beltran et al. 2025).

To fix the notation:
B1: POU domain, class 4, transcription factor 2, residues 256 to 327; numbered along this chain, Q12837 (parent)
chain: RDLEAFAERFKQRRIKLGVTQADVGSALANLKIPGVGSLSQSTICRFESLTLSHNNMIALKPILQAWLEEAE

± gives the uncertainty stated by the source.

In the data set the parent is B1. Kind of data set: abundance fitness (aPCA) (normalised: wild type 0, dead -1); higher = more abundant; growth selection in yeast, the domain comes from the species named. The note with it: Homo sapiens.
For the variant A29H, the abundance fitness is -0.198 ± 0.1.
In the case of A29V it was -0.237 ± 0.092.
In the case of A29I it was -0.323 ± 0.18; in that of A29N, -0.116 ± 0.22; in that of A27E, -0.029 ± 0.11.
With A27G, the abundance fitness is -0.39 ± 0.083.
Take A27S: the abundance fitness was -0.114 ± 0.048.
In the case of A27F it was -0.114 ± 0.19.
In the case of A27C it was -0.215 ± 0.095; in that of L52P, -0.887 ± 0.12; in that of L52Q, -1.08 ± 0.32.
In the case of L52K it was -0.163 ± 0.17; in that of L52D, -0.472 ± 0.18.
In the case of A7P, the abundance fitness was -0.768 ± 0.063.
On to A7H, for which the abundance fitness is -0.772 ± 0.23.
In the case of A7S it was -0.455 ± 0.066; in that of A71W, -0.057 ± 0.2.
In the case of A71K it was -0.125 ± 0.17.
As for A71D, the abundance fitness was -0.614 ± 0.23.
With A71I, the abundance fitness is -0.11 ± 0.19.
For A71G, the abundance fitness was -0.284 ± 0.077.
In the case of Q41K it was 0.054 ± 0.15; in that of Q41R, -0.061 ± 0.06.
In the case of Q41G, the abundance fitness was 0.041 ± 0.048.
In the case of Q41S it was -0.044 ± 0.061.
In the case of Q41V it was -0.187 ± 0.077; in that of N55L, -0.121 ± 0.055; in that of N55E, -0.184 ± 0.39.
Take N55R: the abundance fitness was -0.055 ± 0.043.
Take N55F: the abundance fitness is -0.396 ± 0.13.
Regarding N55I, the abundance fitness was -0.197 ± 0.13.
For the variant N55H, the abundance fitness was -0.326 ± 0.14.
Regarding N55T, the abundance fitness was -0.024 ± 0.074.
Consider H54E, for which the abundance fitness was -0.3 ± 0.34.
With H54S, the abundance fitness was -0.145 ± 0.068.
In the case of H54D it was -0.183 ± 0.21; in that of H54P, -0.079 ± 0.051.
In the case of H54G it was -0.314 ± 0.064.
In the case of I44C it was -0.643 ± 0.33.
As to I44P, the abundance fitness was -0.923 ± 0.17.
In the case of I33Y it was -0.126 ± 0.11.
As to I33T, the abundance fitness was -0.311 ± 0.069.
Take I33A: the abundance fitness is -0.295 ± 0.063.
In the case of C45K it was -0.098 ± 0.14; in that of C45H, 0.039 ± 0.11; in that of C45I, -0.261 ± 0.15.
For the variant C45Y, the abundance fitness is 0.26 ± 0.39.
As to C45V, the abundance fitness is -0.004 ± 0.084.
In the case of C45M it was -0.251 ± 0.33; in that of C45T, -0.161 ± 0.11.
In the case of G37R it was -0.111 ± 0.055; in that of G37K, -0.209 ± 0.11.
In the case of G37H it was 0.083 ± 0.16; in that of G37C, -0.118 ± 0.092.
In the case of G37D, the abundance fitness was -0.198 ± 0.18.
As to G37F, the abundance fitness is -0.398 ± 0.12.
As for A22F, the abundance fitness was -0.031 ± 0.17.
In the case of A22W it was -0.302 ± 0.077; in that of A22P, -0.463 ± 0.078; in that of A22S, -0.082 ± 0.051.
Consider A22T, for which the abundance fitness is -0.347 ± 0.096.
In the case of A66D it was 0.098 ± 0.12; in that of A66W, -0.138 ± 0.088.
With A66M, the abundance fitness was -0.246 ± 0.098.
In the case of A66V it was -0.153 ± 0.065; in that of A66E, -0.007 ± 0.067.
For A66H, the abundance fitness was -0.153 ± 0.097.
As for G18Q, the abundance fitness was -0.446 ± 0.088.
In the case of G18A it was -0.593 ± 0.2.
Take G18P: the abundance fitness is -1.14 ± 0.19.
In the case of G18H, the abundance fitness was -0.292 ± 0.088.
In the case of F10I it was -0.632 ± 0.3; in that of F10T, -0.707 ± 0.12.
In the case of F10Q it was -0.825 ± 0.23; in that of F10D, -0.823 ± 0.21.
F10L: the abundance fitness was -0.921 ± 0.14.
As to E70V, the abundance fitness was -0.186 ± 0.082.
In the case of E70F it was -0.543 ± 0.46.
In the case of E70R it was -0.075 ± 0.053; in that of E70W, -0.45 ± 0.11.
In the case of E70H it was -0.666 ± 0.17; in that of E70K, 0.076 ± 0.14.
Consider E70M, for which the abundance fitness is -0.332 ± 0.1.
Turning to E70Y, the abundance fitness is -0.028 ± 0.48.
In the case of L31C it was -0.102 ± 0.31.
In the case of L31R it was -0.081 ± 0.061; in that of L31I, 0.057 ± 0.24.
In the case of L31F it was -0.018 ± 0.16; in that of L31E, -0.112 ± 0.1; in that of D2Y, -0.171 ± 0.37.
With D2R, the abundance fitness is -0.379 ± 0.06.
In the case of D2H it was -0.497 ± 0.33; in that of D2A, -0.241 ± 0.074; in that of D2E, -0.102 ± 0.13.
In the case of D2M it was -0.318 ± 0.2.
In the case of D2P it was -0.266 ± 0.069; in that of D2W, -0.185 ± 0.32; in that of N30T, -0.112 ± 0.092.
Consider N30H, for which the abundance fitness was -0.087 ± 0.13.
Regarding N30S, the abundance fitness was -0.059 ± 0.061.
In the case of N30I it was -0.766 ± 0.27; in that of N30E, -0.456 ± 0.16; in that of N30L, -0.244 ± 0.064.
In the case of N30K it was 0.054 ± 0.14; in that of P34G, -0.1 ± 0.1.
For P34R, the abundance fitness is -0.231 ± 0.05.
With P34T, the abundance fitness was -0.275 ± 0.092.
In the case of P34Y it was -0.515 ± 0.36.
In the case of P34H it was -0.073 ± 0.12; in that of P34M, -0.175 ± 0.13.
In the case of R46S it was 0.076 ± 0.045; in that of R46C, -0.059 ± 0.082; in that of R46V, -0.899 ± 0.22.
For R46A, the abundance fitness is -0.027 ± 0.11.
As to R46L, the abundance fitness is -0.22 ± 0.062.
In the case of S49L it was -0.297 ± 0.056.
In the case of S49E it was 0.134 ± 0.14; in that of S49C, -0.245 ± 0.14; in that of V36F, -0.176 ± 0.18.
In the case of V36S it was -0.186 ± 0.071.
V36I: the abundance fitness came out at 0.166 ± 0.17.
In the case of V36R it was -0.617 ± 0.071; in that of V36K, -0.532 ± 0.14; in that of A5C, -0.311 ± 0.24.
In the case of A5V it was 0.004 ± 0.11.
In the case of A5T it was -0.201 ± 0.2.
As for A5Q, the abundance fitness is -0.055 ± 0.12.
In the case of M57W it was -0.374 ± 0.075; in that of M57S, -0.602 ± 0.081; in that of M57P, -0.924 ± 0.11.
In the case of M57R it was -0.904 ± 0.088; in that of M57L, -0.157 ± 0.062.
R14H: the abundance fitness is -0.859 ± 0.21.
Consider V24R, for which the abundance fitness is -0.76 ± 0.09.
Take V24T: the abundance fitness is -0.948 ± 0.17.
Take R13V: the abundance fitness is 0.067 ± 0.057.
In the case of R13G it was -0.067 ± 0.069; in that of R13T, -0.165 ± 0.086.
In the case of R13E it was -0.03 ± 0.09; in that of R13Y, -0.761 ± 0.31; in that of R13N, -0.401 ± 0.14.
As for D23W, the abundance fitness is -0.495 ± 0.085.
In the case of D23P it was -0.755 ± 0.067; in that of D23E, -0.057 ± 0.16; in that of D23K, 0.09 ± 0.11.
Turning to D23N, the abundance fitness was -0.119 ± 0.19.
In the case of D23Q it was 0.047 ± 0.074.
In the case of R9F it was -0.335 ± 0.19; in that of R9M, 0.095 ± 0.13.
On to R9C, for which the abundance fitness was 0.014 ± 0.15.
In the case of R9E it was 0.263 ± 0.1; in that of R9A, -0.07 ± 0.062; in that of R9P, -0.782 ± 0.086.
In the case of S26M it was -0.057 ± 0.11; in that of S26H, -0.059 ± 0.094; in that of S26A, 0.176 ± 0.081.
In the case of S26E it was 0.048 ± 0.11.
With S26R, the abundance fitness came to 0.062 ± 0.055.
On to S26G, for which the abundance fitness was -0.164 ± 0.069.
In the case of T20C it was -0.338 ± 0.1; in that of T20Q, -0.555 ± 0.13.
In the case of T20R it was -0.464 ± 0.054; in that of T20D, -0.254 ± 0.11; in that of T20P, -0.473 ± 0.074.
Regarding L50F, the abundance fitness is -0.088 ± 0.11.
For the variant L50G, the abundance fitness is 0.06 ± 0.046.
Consider L50N, for which the abundance fitness is 0.161 ± 0.076.
